Reference: the supplement of paper PMC6757056
± gives the standard deviation of the averaged measurements.

B1: library; a variant is named by its letters at N, in order (parent)
chain: GCUGUCACCGGUGCUUGGUACGUUAUAUUCAGCCGGUCUGAUGAGUCUNNNNNNAGACGAAACAGC

What was measured:
(6R,S)-folinic acid [1] = variants of: B1; experiment: normalized RNA/DNA level without ligand (relative to sTRSVctl = 100) (log10 (% of sTRSVctl)); HEK293T overexpressing SLC46A1; higher = less ribozyme self-cleavage, higher mRNA level; settings: without (6R,S)-folinic acid; ligand present: no
Summary of the method: (§1)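 Library plasmids carrying ribozyme switches linked to mCherry, or to eGFP in some ligand experiments, were transfected into HEK293T at 4 µg per 6-well well, with any ligand added 1 h earlier. Seventy-two hours on, total RNA was extracted with EDTA and reverse-transcribed, amplified, barcoded and sequenced. RNA level was RNA over DNA reads normalized to a spiked-in non-cleaving sequence or to the top sequences, then scaled and log-transformed. The top set was 25 sequences, the transform was ×100 and log10, and sequences needed ≥100 DNA reads.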

(6R,S)-folinic acid [2] = variants of: B1; experiment: normalized RNA/DNA level with ligand (relative to sTRSVctl = 100) (log10 (% of sTRSVctl)); HEK293T overexpressing SLC46A1; ligand concentration (+) RNA-Seq: 6 mM; higher = less ribozyme self-cleavage, higher mRNA level; settings: with (6R,S)-folinic acid; ligand present: yes
Summary of the method: as §1

Row | Variant | normalized RNA/DNA level without ligand (log10) ((6R,S)-folinic acid [1]) | normalized RNA/DNA level with ligand (log10) ((6R,S)-folinic acid [2])
1 | CUUAAC | 1.9881 ± 0.0006 | 1.983 ± 0.0059
2 | UUUAGA | 1.99 ± 0.02 | 2.03 ± 0.025
3 | UUUAGC | 1.998 ± 0.005 | 2 ± 0.044
4 | UUUAGU | 1.957 ± 0.0051 | 1.99 ± 0.015
5 | UUUAGG | 1.879 ± 0.012 | 2 ± 0.045
6 | UUUAAA | 1.934 ± 0.0037 | 1.97 ± 0.047
7 | UUUAAU | 1.975 ± 0.0038 | 1.988 ± 0.014
8 | UUUAAC | 1.978 ± 0.011 | 1.99 ± 0.028
9 | GUUUGC | 1.951 ± 0.018 | 2.02 ± 0.067
10 | GUUUGA | 2.013 ± 0.0046 | 2.05 ± 0.034
11 | GUUUGG | 1.985 ± 0.015 | 2.03 ± 0.044
12 | AUUAGU | 1.95 ± 0.028 | 2.01 ± 0.028
13 | AUUAGC | 1.987 ± 0.0093 | 2.021 ± 0.0097
14 | AUUAAU | 1.9586 ± 0.0017 | 1.98 ± 0.033
15 | AUUAAG | 1.931 ± 0.011 | 2.01 ± 0.026
16 | AUUAAC | 2.011 ± 0.0026 | 2.03 ± 0.033
17 | AUUUCC | 2.048 ± 0.0099 | 2.037 ± 0.01
18 | AUUUCG | 1.961 ± 0.016 | 2 ± 0.026
19 | AUUUCU | 2.03 ± 0.025 | 2.034 ± 0.019
20 | AUUUCA | 2.036 ± 0.012 | 2.01 ± 0.026

Row | Variant | normalized RNA/DNA level without ligand (log10) ((6R,S)-folinic acid [1]) | normalized RNA/DNA level with ligand (log10) ((6R,S)-folinic acid [2])
21 | UUGUUG | 1.96 ± 0.026 | 2.05 ± 0.027
22 | UUGUUU | 2.065 ± 0.018 | 2.08 ± 0.035
23 | UUGUUC | 2.056 ± 0.017 | 2.08 ± 0.047
24 | GUUGUU | 2.03 ± 0.021 | 2.035 ± 0.018
25 | GUUGUC | 2.02 ± 0.025 | 2.021 ± 0.019
26 | CUUGAC | 1.998 ± 0.0057 | 2.033 ± 0.0045
27 | CUUGAA | 1.958 ± 0.01 | 1.99 ± 0.049
28 | CUUUAU | 1.9766 ± 0.0013 | 2 ± 0.048
29 | CUUUAC | 2.019 ± 0.0086 | 2.01 ± 0.062
30 | CUUUAA | 1.978 ± 0.0046 | 2 ± 0.026
31 | CUUUAG | 1.97 ± 0.024 | 1.9987 ± 0.00067
32 | UUUUAA | 1.973 ± 0.018 | 2.03 ± 0.02
33 | UUUUAU | 2.007 ± 0.016 | 2.02 ± 0.023
34 | CUUUCA | 1.992 ± 0.013 | 2.01 ± 0.077
35 | CUUUCU | 1.998 ± 0.005 | 1.99 ± 0.035
36 | CUUUCG | 2.047 ± 0.0046 | 2.053 ± 0.0034
37 | CUUUCC | 2.02 ± 0.03 | 2 ± 0.021
38 | CUUGGU | 2.01 ± 0.021 | 2.01 ± 0.029
39 | AUUGUU | 1.988 ± 0.0071 | 1.998 ± 0.008
40 | AUUGUC | 2.06 ± 0.038 | 2.05 ± 0.066

Row | Variant | normalized RNA/DNA level without ligand (log10) ((6R,S)-folinic acid [1]) | normalized RNA/DNA level with ligand (log10) ((6R,S)-folinic acid [2])
41 | AUUGUA | 1.941 ± 0.016 | 2 ± 0.02
42 | UUUGGU | 1.953 ± 0.013 | 1.98 ± 0.071
43 | UUUGGC | 1.995 ± 0.0079 | 2.04 ± 0.027
44 | AUUCCU | 2.044 ± 0.0048 | 2.047 ± 0.018
45 | AUUCCA | 2.009 ± 0.0091 | 2.02 ± 0.047
46 | AUUCCG | 1.997 ± 0.0068 | 2.037 ± 0.018
47 | AUUCCC | 2.018 ± 0.019 | 1.99 ± 0.052
48 | UUUCCC | 2.043 ± 0.0052 | 2.02 ± 0.075
49 | UUUCCU | 2.0566 ± 0.0006 | 2.058 ± 0.018
50 | UUUCCA | 2.009 ± 0.0042 | 2.01 ± 0.027
51 | AUUCAU | 2 ± 0.026 | 2.0232 ± 0.0017
52 | AUUCAC | 2.04 ± 0.0098 | 1.994 ± 0.019
53 | AUUCAA | 1.9988 ± 0.0016 | 2.01 ± 0.029
54 | GUUCUC | 2.112 ± 0.0075 | 2.076 ± 0.02
55 | GUUCUU | 2.0414 ± 0.0017 | 2.04 ± 0.028
56 | GUUCUG | 1.981 ± 0.015 | 1.987 ± 0.014
57 | UUUCAC | 2.0237 ± 0.0014 | 2.0028 ± 0.00095
58 | UUUCAU | 1.993 ± 0.0093 | 2.02 ± 0.022
59 | UUUCAA | 1.997 ± 0.0084 | 2.01 ± 0.029
60 | AUUCGA | 1.992 ± 0.0073 | 2.03 ± 0.035
